# Key:
# [1] = molecular target: FcγRIIa H (human FcγRIIa, allotype with His at position 131), extracellular domain with C-terminal His tag (human, UniProt P12318 34-217); assay: SPR (Biacore), antibody captured on antigen peptide chip, FcγR as analyte; relative to HoCon Ab GpH7-B3/GpL16-k0 = 100
# [2] = molecular target: T1, FcγRIIb extracellular domain with C-terminal His tag (human, UniProt P31994 43-217); assay: SPR Biacore, antibody captured, FcgR analyte; vs HeCon Ab GpH7-A5/GpH7-B3/GpL16-k0 = 100
# T1 construct: extracellular domain; also called FcgRIIb; 2b; not shown: His tag at the C terminus
# T1 sequence (looked up): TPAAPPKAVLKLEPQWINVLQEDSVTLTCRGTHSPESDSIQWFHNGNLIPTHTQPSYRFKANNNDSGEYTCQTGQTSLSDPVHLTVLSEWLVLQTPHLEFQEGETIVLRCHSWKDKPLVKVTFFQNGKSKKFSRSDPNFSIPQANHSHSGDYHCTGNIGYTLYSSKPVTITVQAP
# Method: (§1) The heterodimerized antibodies He Abs in which one of the H chains was introduced with an alteration were assayed for their binding activities to each activating FcγR and inhibitory FcγR according to the method described in Example 4. […] The activating FcγRs in FIGS. 26, 27, 28, and 29 are FcγRIa, FcγRIIa (R), FcγRIIa (H), and FcγRIIIa, respectively.
# (§2) Analysis of interaction between objective antibody and the FcγR was carried out using Biacore T100 (GE Healthcare). HBS-EP+ (GE Healthcare) was used as the running buffer, and the measurement temperature was set to 25° C. Chips produced by immobilizing the antigen peptide by the amine coupling method to a Series S Sencor Chip CM5 (GE Healthcare), or alternatively, chips produced by allowing preliminarily biotinylated antigen peptides to interact with and immobilize onto a Series S Sensor Chip SA (certified) (GE Healthcare) were used. Antibodies of interest were captured onto an antigen peptide-immobilized chip, and allowed to interact to each FcγR diluted with running buffer. To regenerate and repeatedly use the chip, the antibodies captured on the chip were washed off by reacting 10 mM glycine-HCl, pH 1.5.
# [3] = molecular target: T2, FcγRIIa R (FcγRIIa, allotype R: Arg at position 131) extracellular domain with C-terminal His tag (human, UniProt P12318 34-217); assay: as above
# T2 construct: extracellular domain; also called FcgRIIa R; 2aR; not shown: His tag at the C terminus
# T2 sequence (looked up): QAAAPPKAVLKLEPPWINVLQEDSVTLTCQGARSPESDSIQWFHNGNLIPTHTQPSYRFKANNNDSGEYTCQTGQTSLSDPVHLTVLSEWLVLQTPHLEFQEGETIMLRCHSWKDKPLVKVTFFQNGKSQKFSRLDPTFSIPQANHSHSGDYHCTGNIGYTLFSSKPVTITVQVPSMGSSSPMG
# Method: as §1, §2
Binder,Ho/Con_2aH [1],He/Con_2b [2],He/Con_2aR [3]
"GpH7-B3 variant S337_08L/GpL16-k0 (antibody, human IgG1, kappa, homodimerized, mutation in both H chains; also called Ho Ab) heavy: not shown light: DIVMTQSPLSLPVTPGEPASISCQASESLVHSNRNTYLHWYLQKPGQSPQLLIYKVSNRFSGVPDRFSGSGSGTDFTLKISRVEAEDVGVYYCSQNTHVPPTFGQGTKVEIERTVAAPSVFIFPPSDEQLKSGTASVVCLLNNFYPREAKVQWKVDNALQSGNSQESVTEQDSKDSTYSLSSTLTLSKADYEKHKVYACEVTHQGLSSPVTKSFNRGEC",93.1 control = 100,,
"GpH7-B3 variant E333_09D/GpL16-k0 (antibody, human IgG1, kappa, homodimerized, mutation in both H chains; also called Ho Ab) heavy: not shown light: DIVMTQSPLSLPVTPGEPASISCQASESLVHSNRNTYLHWYLQKPGQSPQLLIYKVSNRFSGVPDRFSGSGSGTDFTLKISRVEAEDVGVYYCSQNTHVPPTFGQGTKVEIERTVAAPSVFIFPPSDEQLKSGTASVVCLLNNFYPREAKVQWKVDNALQSGNSQESVTEQDSKDSTYSLSSTLTLSKADYEKHKVYACEVTHQGLSSPVTKSFNRGEC",103 control = 100,,
"GpH7-B3 variant H268_02A/GpL16-k0 (antibody, human IgG1, kappa, homodimerized, mutation in both H chains; also called Ho Ab) heavy: not shown light: DIVMTQSPLSLPVTPGEPASISCQASESLVHSNRNTYLHWYLQKPGQSPQLLIYKVSNRFSGVPDRFSGSGSGTDFTLKISRVEAEDVGVYYCSQNTHVPPTFGQGTKVEIERTVAAPSVFIFPPSDEQLKSGTASVVCLLNNFYPREAKVQWKVDNALQSGNSQESVTEQDSKDSTYSLSSTLTLSKADYEKHKVYACEVTHQGLSSPVTKSFNRGEC",111 control = 100,,
"GpH7-B3 variant Y296_09D/GpL16-k0 (antibody, human IgG1, kappa, homodimerized, mutation in both H chains; also called Ho Ab) heavy: not shown light: DIVMTQSPLSLPVTPGEPASISCQASESLVHSNRNTYLHWYLQKPGQSPQLLIYKVSNRFSGVPDRFSGSGSGTDFTLKISRVEAEDVGVYYCSQNTHVPPTFGQGTKVEIERTVAAPSVFIFPPSDEQLKSGTASVVCLLNNFYPREAKVQWKVDNALQSGNSQESVTEQDSKDSTYSLSSTLTLSKADYEKHKVYACEVTHQGLSSPVTKSFNRGEC",99.9 control = 100,,
"GpH7-B3 variant G236_03V/GpL16-k0 (antibody, human IgG1, kappa, homodimerized, mutation in both H chains; also called Ho Ab) heavy: not shown light: DIVMTQSPLSLPVTPGEPASISCQASESLVHSNRNTYLHWYLQKPGQSPQLLIYKVSNRFSGVPDRFSGSGSGTDFTLKISRVEAEDVGVYYCSQNTHVPPTFGQGTKVEIERTVAAPSVFIFPPSDEQLKSGTASVVCLLNNFYPREAKVQWKVDNALQSGNSQESVTEQDSKDSTYSLSSTLTLSKADYEKHKVYACEVTHQGLSSPVTKSFNRGEC",111 control = 100,,
"GpH7-B3 variant G236_07I/GpL16-k0 (antibody, human IgG1, kappa, homodimerized, mutation in both H chains; also called Ho Ab) heavy: not shown light: DIVMTQSPLSLPVTPGEPASISCQASESLVHSNRNTYLHWYLQKPGQSPQLLIYKVSNRFSGVPDRFSGSGSGTDFTLKISRVEAEDVGVYYCSQNTHVPPTFGQGTKVEIERTVAAPSVFIFPPSDEQLKSGTASVVCLLNNFYPREAKVQWKVDNALQSGNSQESVTEQDSKDSTYSLSSTLTLSKADYEKHKVYACEVTHQGLSSPVTKSFNRGEC",101 control = 100,,
"GpH7-B3 variant V266_08L/GpL16-k0 (antibody, human IgG1, kappa, homodimerized, mutation in both H chains; also called Ho Ab) heavy: not shown light: DIVMTQSPLSLPVTPGEPASISCQASESLVHSNRNTYLHWYLQKPGQSPQLLIYKVSNRFSGVPDRFSGSGSGTDFTLKISRVEAEDVGVYYCSQNTHVPPTFGQGTKVEIERTVAAPSVFIFPPSDEQLKSGTASVVCLLNNFYPREAKVQWKVDNALQSGNSQESVTEQDSKDSTYSLSSTLTLSKADYEKHKVYACEVTHQGLSSPVTKSFNRGEC",91.5 control = 100,,
"GpH7-B3 variant T335_18N/GpL16-k0 (antibody, human IgG1, kappa, homodimerized, mutation in both H chains; also called Ho Ab) heavy: not shown light: DIVMTQSPLSLPVTPGEPASISCQASESLVHSNRNTYLHWYLQKPGQSPQLLIYKVSNRFSGVPDRFSGSGSGTDFTLKISRVEAEDVGVYYCSQNTHVPPTFGQGTKVEIERTVAAPSVFIFPPSDEQLKSGTASVVCLLNNFYPREAKVQWKVDNALQSGNSQESVTEQDSKDSTYSLSSTLTLSKADYEKHKVYACEVTHQGLSSPVTKSFNRGEC",98 control = 100,,
"GpH7-B3 variant T335_20W/GpL16-k0 (antibody, human IgG1, kappa, homodimerized, mutation in both H chains; also called Ho Ab) heavy: not shown light: DIVMTQSPLSLPVTPGEPASISCQASESLVHSNRNTYLHWYLQKPGQSPQLLIYKVSNRFSGVPDRFSGSGSGTDFTLKISRVEAEDVGVYYCSQNTHVPPTFGQGTKVEIERTVAAPSVFIFPPSDEQLKSGTASVVCLLNNFYPREAKVQWKVDNALQSGNSQESVTEQDSKDSTYSLSSTLTLSKADYEKHKVYACEVTHQGLSSPVTKSFNRGEC",98.7 control = 100,,
"GpH7-B3 variant Y296_04F/GpL16-k0 (antibody, human IgG1, kappa, homodimerized, mutation in both H chains; also called Ho Ab) heavy: not shown light: DIVMTQSPLSLPVTPGEPASISCQASESLVHSNRNTYLHWYLQKPGQSPQLLIYKVSNRFSGVPDRFSGSGSGTDFTLKISRVEAEDVGVYYCSQNTHVPPTFGQGTKVEIERTVAAPSVFIFPPSDEQLKSGTASVVCLLNNFYPREAKVQWKVDNALQSGNSQESVTEQDSKDSTYSLSSTLTLSKADYEKHKVYACEVTHQGLSSPVTKSFNRGEC",95 control = 100,,
"GpH7-B3 variant S337_20W/GpL16-k0 (antibody, human IgG1, kappa, homodimerized, mutation in both H chains; also called Ho Ab) heavy: not shown light: DIVMTQSPLSLPVTPGEPASISCQASESLVHSNRNTYLHWYLQKPGQSPQLLIYKVSNRFSGVPDRFSGSGSGTDFTLKISRVEAEDVGVYYCSQNTHVPPTFGQGTKVEIERTVAAPSVFIFPPSDEQLKSGTASVVCLLNNFYPREAKVQWKVDNALQSGNSQESVTEQDSKDSTYSLSSTLTLSKADYEKHKVYACEVTHQGLSSPVTKSFNRGEC",96.6 control = 100,,
"GpH7-B3 variant A330_16H/GpL16-k0 (antibody, human IgG1, kappa, homodimerized, mutation in both H chains; also called Ho Ab) heavy: not shown light: DIVMTQSPLSLPVTPGEPASISCQASESLVHSNRNTYLHWYLQKPGQSPQLLIYKVSNRFSGVPDRFSGSGSGTDFTLKISRVEAEDVGVYYCSQNTHVPPTFGQGTKVEIERTVAAPSVFIFPPSDEQLKSGTASVVCLLNNFYPREAKVQWKVDNALQSGNSQESVTEQDSKDSTYSLSSTLTLSKADYEKHKVYACEVTHQGLSSPVTKSFNRGEC",101 control = 100,,
"GpH7-B3 variant Y296_16H/GpL16-k0 (antibody, human IgG1, kappa, homodimerized, mutation in both H chains; also called Ho Ab) heavy: not shown light: DIVMTQSPLSLPVTPGEPASISCQASESLVHSNRNTYLHWYLQKPGQSPQLLIYKVSNRFSGVPDRFSGSGSGTDFTLKISRVEAEDVGVYYCSQNTHVPPTFGQGTKVEIERTVAAPSVFIFPPSDEQLKSGTASVVCLLNNFYPREAKVQWKVDNALQSGNSQESVTEQDSKDSTYSLSSTLTLSKADYEKHKVYACEVTHQGLSSPVTKSFNRGEC",85.7 control = 100,,
"GpH7-B3 variant H268_18N/GpL16-k0 (antibody, human IgG1, kappa, homodimerized, mutation in both H chains; also called Ho Ab) heavy: not shown light: DIVMTQSPLSLPVTPGEPASISCQASESLVHSNRNTYLHWYLQKPGQSPQLLIYKVSNRFSGVPDRFSGSGSGTDFTLKISRVEAEDVGVYYCSQNTHVPPTFGQGTKVEIERTVAAPSVFIFPPSDEQLKSGTASVVCLLNNFYPREAKVQWKVDNALQSGNSQESVTEQDSKDSTYSLSSTLTLSKADYEKHKVYACEVTHQGLSSPVTKSFNRGEC",110 control = 100,,
"GpH7-A5/GpH7-B3 variant Y300_04F/GpL16-k0 (antibody, human IgG1, kappa, He Ab: alteration in the GpH7-B3 H chain only; also called He Ab) heavy 1: not shown heavy 2: not shown light: DIVMTQSPLSLPVTPGEPASISCQASESLVHSNRNTYLHWYLQKPGQSPQLLIYKVSNRFSGVPDRFSGSGSGTDFTLKISRVEAEDVGVYYCSQNTHVPPTFGQGTKVEIERTVAAPSVFIFPPSDEQLKSGTASVVCLLNNFYPREAKVQWKVDNALQSGNSQESVTEQDSKDSTYSLSSTLTLSKADYEKHKVYACEVTHQGLSSPVTKSFNRGEC",,94.8 control = 100,108 control = 100
"GpH7-A5/GpH7-B3 variant Y300_18N/GpL16-k0 (antibody, human IgG1, kappa, He Ab: alteration in the GpH7-B3 H chain only; also called He Ab) heavy 1: not shown heavy 2: not shown light: DIVMTQSPLSLPVTPGEPASISCQASESLVHSNRNTYLHWYLQKPGQSPQLLIYKVSNRFSGVPDRFSGSGSGTDFTLKISRVEAEDVGVYYCSQNTHVPPTFGQGTKVEIERTVAAPSVFIFPPSDEQLKSGTASVVCLLNNFYPREAKVQWKVDNALQSGNSQESVTEQDSKDSTYSLSSTLTLSKADYEKHKVYACEVTHQGLSSPVTKSFNRGEC",,82.7 control = 100,100 control = 100
"GpH7-A5/GpH7-B3 variant Y296_19Q/GpL16-k0 (antibody, human IgG1, kappa, He Ab: alteration in the GpH7-B3 H chain only; also called He Ab) heavy 1: not shown heavy 2: not shown light: DIVMTQSPLSLPVTPGEPASISCQASESLVHSNRNTYLHWYLQKPGQSPQLLIYKVSNRFSGVPDRFSGSGSGTDFTLKISRVEAEDVGVYYCSQNTHVPPTFGQGTKVEIERTVAAPSVFIFPPSDEQLKSGTASVVCLLNNFYPREAKVQWKVDNALQSGNSQESVTEQDSKDSTYSLSSTLTLSKADYEKHKVYACEVTHQGLSSPVTKSFNRGEC",,89.3 control = 100,102 control = 100
"GpH7-A5/GpH7-B3 variant Y296_18N/GpL16-k0 (antibody, human IgG1, kappa, He Ab: alteration in the GpH7-B3 H chain only; also called He Ab) heavy 1: not shown heavy 2: not shown light: DIVMTQSPLSLPVTPGEPASISCQASESLVHSNRNTYLHWYLQKPGQSPQLLIYKVSNRFSGVPDRFSGSGSGTDFTLKISRVEAEDVGVYYCSQNTHVPPTFGQGTKVEIERTVAAPSVFIFPPSDEQLKSGTASVVCLLNNFYPREAKVQWKVDNALQSGNSQESVTEQDSKDSTYSLSSTLTLSKADYEKHKVYACEVTHQGLSSPVTKSFNRGEC",,91.5 control = 100,104 control = 100
